Measurements reported in PMC4448915 (Structure (London, England : 1993), 2015).
Several values for one entry are separate records, joined by “and”; a condition that tells them apart may be missing. Identical values can stand only once. Like-named read-outs stand apart in the source and are kept apart here.

B1: Ddi1UBL, ubiquitin-like (UBL) domain of DNA-damage-inducible 1 protein (Ddi1) from Saccharomyces cerevisiae, residues 2-80 (domain or fragment, S. cerevisiae, UniProt P40087 2-80, looked up)
chain: DLTISNELTGEIYGPIEVSEDMALTDLIALLQADCGFDKTKHDLYYNMDILDSNRTQSLKELGLKTDDLLLIRGKISNS
B2: full-length (FL) Ddi1 protein from Saccharomyces cerevisiae (natural protein, S. cerevisiae, UniProt P40087 1-428, looked up)
chain: MDLTISNELTGEIYGPIEVSEDMALTDLIALLQADCGFDKTKHDLYYNMDILDSNRTQSLKELGLKTDDLLLIRGKISNSIQTDAATLSDEAFIEQFRQELLNNQMLRSQLILQIPGLNDLVNDPLLFRERLGPLILQRRYGGYNTAMNPFGIPQDEYTRLMANPDDPDNKKRIAELLDQQAIDEQLRNAIEYTPEMFTQVPMLYINIEINNYPVKAFVDTGAQTTIMSTRLAKKTGLSRMIDKRFIGEARGVGTGKIIGRIHQAQVKIETQYIPCSFTVLDTDIDVLIGLDMLKRHLACVDLKENVLRIAEVETSFLSEAEIPKSFQEGLPAPTSVTTSSDKPLTPTKTSSTLPPQPGAVPALAPRTGMGPTPTGRSTAGATTATGRTFPEQTIKQLMDLGFPRDAVVKALKQTNGNAEFAASLLFQ
B3: Ufo1UIMs, Ufo1 fragment of residues 547-668 comprising three UIM motifs (domain or fragment, UniProt Q04511 547-668, looked up)
chain: DEDEQLRRALEESQLIYETQTNSSANHGNNTNDEIDEDDEEFLRAIRQSRVEDERRRHLRNHTTGRRNGPLSDDNFATYGAAESSERTSTENTIGSSVGVDASNNVDEDLQLAIALSLSEIN

Key:
[1] = target: T1, ubiquitin (Ub), monomeric, wild type (UniProt P0CG48 1-76); assay: NMR titration
[2] = target: T1, ubiquitin (Ub), monomeric, wild type; assay: NMR titration; remark: listed apart in the source

Binder	Kd [1] [µM]	Kd [2]	stoichiometry N [2]	binding result [2]
TFPEQTIKQLMDLGFPRDAVVKALKQTNGNAEFAASLLFQ (domain or fragment, S. cerevisiae, UniProt P40087 389-428, looked up) [Ddi1UBA, ubiquitin-associated (UBA) domain of Ddi1 from Saccharomyces cerevisiae, residues 389-428]	291 ± 13	150 ± 16 µM	–	–
B1	175 ± 25	45 µM and 71 µM	1	–
B2	–	–	–	binds
B3	–	237 ± 52 µM	–	–
